Experimental data taken from patent publication US20240102021A1.

Target: MC1R (endogenous, MNT-1 cells) (human) (UniProt Q01726)
Test: cell-based or functional assay

UniProt Q01726, sequence (Q01726 whole entry): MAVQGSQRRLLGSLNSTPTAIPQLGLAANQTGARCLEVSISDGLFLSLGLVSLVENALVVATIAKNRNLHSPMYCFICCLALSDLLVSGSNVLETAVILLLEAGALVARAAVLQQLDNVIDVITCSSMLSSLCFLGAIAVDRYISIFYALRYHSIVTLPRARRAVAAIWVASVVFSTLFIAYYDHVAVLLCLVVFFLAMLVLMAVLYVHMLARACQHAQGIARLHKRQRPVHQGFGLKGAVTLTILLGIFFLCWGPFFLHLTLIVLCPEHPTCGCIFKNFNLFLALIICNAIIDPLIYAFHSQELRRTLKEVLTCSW

Substance: NDP-αMSH (peptide)
- increase in cellular cAMP (Epac H187 FRET ratio CFP/YFP, normalized to FSK+IBMX), control MCh-expressing MNT-1 cells: 50%

Substance: OPN3-cMCh (from UniProt Q9H1Y3 1-402) (receptor)
- increase in cellular cAMP on αMSH stimulation (Epac H187 FRET, normalized to FSK+IBMX), MNT-1 cells expressing OPN3-MCh: 10%
